Common to all, as to assay: MST
The target in assay [1] is T1, MPP5 PDZ domain (residues 238-336) (human, UniProt Q8N3R9 238-336).
T1 sequence: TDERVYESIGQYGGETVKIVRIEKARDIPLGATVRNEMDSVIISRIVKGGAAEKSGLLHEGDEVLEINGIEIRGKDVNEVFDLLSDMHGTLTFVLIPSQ

For assay [2], the target named is PARD3 PDZ3 domain (residues 582-685) (human, UniProt Q8TEW0 582-685).
Assay [3] deals with T2, LNX2 PDZ2 domain (residues 334-426) (human, UniProt Q8N448 334-426).
T2 sequence: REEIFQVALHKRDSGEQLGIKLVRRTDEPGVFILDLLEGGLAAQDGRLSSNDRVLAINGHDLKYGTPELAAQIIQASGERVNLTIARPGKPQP

Assay [4] has as its target T3, ZO-1 PDZ2 domain (residues 184-264) (human, UniProt Q07157 184-264).
T3 sequence: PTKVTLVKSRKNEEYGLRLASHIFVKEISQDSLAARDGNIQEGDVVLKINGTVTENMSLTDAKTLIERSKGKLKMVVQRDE

Assay [5] addresses MLLT4 PDZ domain (residues 961-1056) (human) (UniProt P55196).

Where no end group is shown, it is not given here.

Sequence of PARD3 PDZ3 domain (residues 582-685) (Q8TEW0 582-685): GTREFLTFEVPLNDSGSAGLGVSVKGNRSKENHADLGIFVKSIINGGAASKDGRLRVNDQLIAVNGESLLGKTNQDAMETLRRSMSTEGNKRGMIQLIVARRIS

The term Kd denotes the constant that tells how readily two partners part at equilibrium. On to NLNSSRVLDLLV (not fully specified) [C-terminal SARS-CoV-2-E PBM P71L mutant peptide (12-mer, beta variant B.1.351)], for which the binding result in assay [1] is “binds”. Further, the Kd is more than 1000 µM in assay [2], 47 µM in assay [3], 133 µM in assay [4] and more than 1000 µM in assay [5].

The values are drawn from doi:10.1101/2021.12.04.471219 (bioRxiv, 2021).
